Several values for one entry are separate records, joined by “and”; a condition that tells them apart may be missing. Equal entries are not always repeated. Where two headings read alike, the source gives them in different places.
What was measured:
[1] = target: human PD-L1-Fc chimeric protein (human); assay: SPR, PD-L1-Fc captured, binder injected
human PD-L1 on cells [2] = target: T1, human PD-L1 on cells (human, UniProt Q9NZQ7 19-290); assay: cell-based or functional assay
human PD-L1 on cells [3] = target: T1, human PD-L1 on cells; assay: cell-based or functional assay; remark: listed apart in the source
human PD-L1 on cells [4] = target: T1, human PD-L1 on cells; assay: cell-based or functional assay; remark: listed apart in the source
[5] = target: T2, CD137 on Jurkat NFkB reporter cells (human, UniProt Q07011 24-255); assay: cell-based or functional assay
[6] = target: T2, CD137 on Jurkat NFkB reporter cells; assay: cell-based or functional assay; remark: listed apart in the source
[7] = target: T2, CD137 on Jurkat NFkB reporter cells; assay: cell-based or functional assay; remark: listed apart in the source
[8] = target: T2, CD137 on Jurkat NFkB reporter cells; assay: cell-based or functional assay; remark: listed apart in the source
[9] = target: T2, CD137 on Jurkat NFkB reporter cells; assay: cell-based or functional assay; remark: listed apart in the source
[10] = target: T2, CD137 on Jurkat NFkB reporter cells; assay: cell-based or functional assay; remark: listed apart in the source
[11] = target: T2, CD137 on Jurkat NFkB reporter cells; assay: cell-based or functional assay; remark: listed apart in the source
[12] = target: T2, CD137 on Jurkat NFkB reporter cells; assay: cell-based or functional assay; remark: listed apart in the source
human PD-L1 on cells [13] = target: T1, human PD-L1 on cells; assay: cell-based or functional assay; remark: listed apart in the source

Row | Binder | IC50, NFAT-luciferase reporter gene assay (human PD-L1 on cells [2]) [µg/mL] | EC50 of IL-2 secretion, PBMC stimulated with SEA (human PD-L1 on cells [4]) [µg/mL] | EC50, NFkB-luciferase reporter, PD-L1 expressing CHO cells, 24h [5] [µg/mL] | EC50, NFkB-luciferase reporter, PD-L1 expressing CHO cells, 24h, + HSA [5] [µg/mL] | EC50, NFkB-luciferase reporter, CHO-PD-L1 cells [6] [µg/mL] | EC50, NFkB-luciferase reporter, HCC827 cells stimulated with IFNg [7] | EC50, NFkB-luciferase reporter, HCC827 cells without IFNg [8] | EC50, NFkB-luciferase reporter, HCC827 with IFNy stimulation, 24h [9] [µg/mL] | EC50, NFkB-luciferase reporter, HCC827 without IFNy stimulation, 24h [9] [µg/mL] | EC50, NFkB-luciferase reporter, CHO-PD-L1 cells [10] | EC50, NFkB-luciferase reporter, PD-L1 expressing CHO cells, 6h [11] [µg/mL] | EC50, NFkB-luciferase reporter, PD-L1 expressing CHO cells, 6h, + HSA [11] [µg/mL] | max. activation (%), NF-kB reporter, CHO-PD-L1 [12] [%] | max. activation (%), NF-kB reporter, HCC827 +IFNg [12] [%] | max. activation (%), NF-kB reporter, HCC827 -IFNg [12] [%] | other results
1 | PRO997 (scFv, also called 37-20-B03sc01; PRO977) scFv: DIQMTQSPSSLSASVGDRVTITCQASQSIGTYLAWYQQKPGKAPKLLIYRAFILASGVPSRFSGSGSGTDFTLTISSLQPEDFATYYCQSNFYSDSTTIGPNAFGTGTKVTVLGGGGGSGGGGSGGGGSGGGGSQVQLQESGPGLVKPSETLSLTCKVSGFSFNSDYWIYWIRQPPGKGLEWIGSIYGGSSGNTQYASWAQGRVTISVDSSKNQFSLKLSSVTAADTAVYYCARGYVDYGGATDLWGQGTLVTVSS | 0.0111 | 0.0409 | – | – | – | – | – | – | – | – | – | – | – | – | – | fold higher affinity against the STR graft of clone 33-03-G02 (PRO1126) [1]: ~2 fold; fold higher potency on VH4 framework than on VH1 framework (PRO1013), NFAT reporter (human PD-L1 on cells [3]): ~2 fold
2 | Urelumab (antibody, V domains shown) VH: QVQLQQWGAGLLKPSETLSLTCAVYGGSFSGYYWSWIRQSPEKGLEWIGEINHGGYVTYNPSLESRVTISVDTSKNQFSLKLSSVTAADTAVYYCARDYGPGNYDWYFDLWGRGTLVTVSS VL: EIVLTQSPATLSLSPGERATLSCRASQSVSSYLAWYQQKPGQAPRLLIYDASNRATGIPARFSGSGSGTDFTLTISSLEPEDFAVYYCQQRSNWPPALTFGGGTKVEIK | – | – | 0.0466 | 0.0782 | 0.0791 | 0.114 µg/mL and 0.145 µg/mL and 0.108 µg/mL | 0.212 µg/mL and 0.11 µg/mL and 0.112 µg/mL | 0.0528 | 0.0475 | 0.0795 µg/mL and 0.104 µg/mL and 0.0865 µg/mL | 0.0565 | 0.0777 | – | – | – | –
3 | PRO951 (bispecific antibody) DIQMTQSPSSLSASVGDRVTITCQASQSINDYLAWYQQKPGKAPKLLIYKASTLASGVPSRFSGSGSGTDFTLTISSLQPEDFATYYCQQGYIITDIDNVFGTGTKVTVLGGGGGSEVQLVESGGGLVQPGGSLRLSCAASGFSFNNDYDMCWVRQAPGKGLEWIGCIDTGDGSTYYASWAKGRFTISRDNSKNTVYLQMNSLRAEDTAVYYCAREAASSSGYGMGYFDLWGQGTLVTVSSGGGGSGGGGSGGGGSGGGGSIQMTQSPSSLSASVGDRVTITCQSSQSVYDNNWLAWYQQKPGKAPKLLIYRASNLASGVPSRFSGSGSGTDFTLTISSLQPEDFATYYCQGTYLSSNWYWAFGTGTKVTVLGGGGGSQVQLQESGPGLVKPSETLSLTCKVSGFSFSSGYDMCWIRQPPGKGLEWIGCVVAGSVDITYYASWAKGRVTISVDSSKNQFSLKLSSVTAADTAVYYCARKDAYSDAFNLWGQGTLVTVSS | 0.0885 | – | – | – | 0.0337 | – | – | – | – | – | – | – | 432 | – | – | –
4 | PRO885 (bispecific antibody) DIQMTQSPSSLSASVGDRVTITCQASQSINDYLAWYQQKPGKAPKLLIYKASTLASGVPSRFSGSGSGTDFTLTISSLQPEDFATYYCQQGYIITDIDNVFGTGTKVTVLGGGGGSQVQLQESGPGLVKPSETLSLTCKVSGFSFSNSYWICWIRQPPGKGLEWIGCTFVGSSDSTYYANWAKGRVTISVDSSKNQFSLKLSSVTAADTAVYYCARHPSDAVYGYANNLWGQGTLVTVSSGGGGSGGGGSGGGGSGGGGSIQMTQSPSSLSASVGDRVTITCQASQSINNVLAWYQQKPGKAPKLLIYRASTLASGVPSRFSGSGSGTDFTLTISSLQPEDFATYYCQSSYGNYGDFGTGTKVTVLGGGGGSQVQLQESGPGLVKPSETLSLTCKVSGFSFSSGYDMCWIRQPPGKGLEWIGCVVAGSVDITYYASWAKGRVTISVDSSKNQFSLKLSSVTAADTAVYYCARKDAYSDAFNLWGQGTLVTVSS | 0.137 | 0.0399 | 0.0138 | 0.0149 | 0.0117 | 0.00927 µg/mL and 0.00888 µg/mL and 0.00923 µg/mL | 0.0115 µg/mL and 0.0131 µg/mL and 0.013 µg/mL | 0.00751 | 0.00952 | 0.00513 µg/mL and 0.00486 µg/mL and 0.0063 µg/mL | 0.00784 | 0.00792 | 499 | 134 | 111 | EC50 of IL-2 secretion, PBMC + CHO cells expressing PD-L1 (50000/well), anti-CD3 1 ug/ml (human PD-L1 on cells [13]): 0.0129 µg/mL; EC50 of IL-2 secretion, PBMC + CHO cells expressing PD-L1 (50000/well), anti-CD3 2 ug/ml (human PD-L1 on cells [13]): 0.052 µg/mL; EC50 of IL-2 secretion, PBMC + CHO cells expressing PD-L1 (100000/well), anti-CD3 1 ug/ml (human PD-L1 on cells [13]): 0.0862 µg/mL; EC50 of IL-2 secretion, PBMC + CHO cells expressing PD-L1 (100000/well), anti-CD3 2 ug/ml (human PD-L1 on cells [13]): 0.0419 µg/mL; EC50 of IL-2 secretion, PBMC + CHO cells expressing PD-L1 (200000/well), anti-CD3 1 ug/ml (human PD-L1 on cells [13]): 0.0806 µg/mL; EC50 of IL-2 secretion, PBMC + CHO cells expressing PD-L1 (200000/well), anti-CD3 2 ug/ml (human PD-L1 on cells [13]): 0.0301 µg/mL
5 | PRO1124 (bispecific antibody) DIQMTQSPSSLSASVGDRVTITCQASQSINDYLAWYQQKPGKAPKLLIYKASTLASGVPSRFSGSGSGTDFTLTISSLQPEDFATYYCQQGYIITDIDNVFGTGTKVTVLGGGGGSQVQLQESGPGLVKPSETLSLTCKASGFSFSNSYWICWVRQPPGKGLEWIGCTFVGSSDSTYYANWAKGRVTISKDSSKNQVSLKLSSVTAADTAVYFCARHPSDAVYGYANNLWGQGTLVTVSSGGGGSGGGGSGGGGSGGGGSLQMTQSPSSLSASVGDRVTITCQASQSINNVLAWYQQKPGKPPKLLIYRASTLASGVPSRFSGSGSGTDFTLTISSLQPEDFATYYCQSSYGNYGDFGTGTKVTVLGGGGGSQVQLQESGPGLVKPSETLSLTCKVSGFSFSSGYDMCWIRQPPGKGLEWIGCVVAGSVDITYYASWAKGRVTISVDSSKNQFSLKLSSVTAADTAVYYCARKDAYSDAFNLWGQGTLVTVSS | – | – | – | – | – | 0.00483 µg/mL | 0.00562 µg/mL | – | – | 0.00368 µg/mL | – | – | 229 | 188 | 113 | –
6 | PRO1126 (bispecific antibody) DFQLTQSPSSLSASVGDRVTITCQASQSINDYLAWYQQKPGKSPKLLIYKASTLASGVPSRFSGSGSGTDFTLTISSLQPEDFATYYCQQGYIITDIDNVFGTGTKVTVLGGGGGSQVQLQESGPGLVKPSETLSLTCKVSGFSFSNSYWICWIRQPPGKGLEWIGCTFVGSSDSTYYANWAKGRVTISVDSSKNQFSLKLSSVTAADTAVYYCARHPSDAVYGYANNLWGQGTLVTVSSGGGGSGGGGSGGGGSGGGGSIQMTQSPSSLSASVGDRVTITCQASQSINNVLAWYQQKPGKAPKLLIYRASTLASGVPSRFSGSGSGTDFTLTISSLQPEDFATYYCQSSYGNYGDFGTGTKVTVLGGGGGSQSQLQESGPGLVKPSETLSLTCKASGFSFSSGYDMCWVRQPPGKGLEWIACVVAGSVDITYYASWAKGRVTISKDSSKNQVSLKLSSVTAADTAVYFCARKDAYSDAFNLWGQGTLVTVSS | – | – | – | – | – | 0.00548 µg/mL | 0.00697 µg/mL | – | – | 0.006 µg/mL | – | – | 242 | 208 | 135 | IC50, NFAT-luciferase reporter gene assay (human PD-L1 on cells [3]): 0.0481 µg/mL; fold improvement of neutralization potency against PRO885, NFAT reporter (human PD-L1 on cells [3]): 3 fold
